From PMC5627308, “Biochemical Function, Molecular Structure and Evolution of an Atypical Thioredoxin Reductase from Desulfovibrio vulgaris” (Frontiers in Microbiology, 2017) come the findings set out here.

For test [1], the target named is T1, DvTR3 (Nitratidesulfovibrio vulgaris, UniProt Q72F38).
T1 construct: gene trxB-1; recombinant from E. coli, purified; FAD-containing
In words: reduction of bound flavin, absorbance spectra, anaerobic. The following applies: 100 uM NAD(P)H, 50 mM Tris-HCl pH 7.5, 150 mM NaCl, 25 C. The test is classed as biochemical.

In test [2] the target is T2, DvTR1 (Nitratidesulfovibrio vulgaris, UniProt Q72B02).
T2 construct: gene trxB-2; recombinant from E. coli, purified; FAD-containing
The description is as above. The test is classed as biochemical. The following applies: 100 uM NAD(P)H, 50 mM Tris-HCl pH 7.5, 150 mM NaCl, 25 C.

In test [3] the target is DvTRi, isolated thioredoxin reductase from Desulfovibrio vulgaris Hildenborough (Desulfovibrio vulgaris Hildenborough). Description: crystal structure; oxidized DvTRi, 2.0 Å; crystals from 12% PEG 3350, 100 mM BisTris pH 6.0 (crystals 1) or 25% PEG 4000, 50 mM ammonium acetate, 100 mM sodium citrate pH 5.6 (crystals 2).
Test [4] deals with DvTrx1C30S (Desulfovibrio vulgaris Hildenborough). Description: cross-linking; mixed-disulfide trapping with single-cysteine variants: DTT-reduced DvTRi variant reacted with equimolar DvTrx1 variant activated as TNB mixed disulfide, 50 mM Na/K phosphate pH 8.8, 2 h at 37°C; non-reducing SDS-PAGE, western blot with antiserum against EcTrxA.
Test [5] addresses DvTrx1C33S (Desulfovibrio vulgaris Hildenborough). Described as above.

T1 sequence (Q72F38 entry or part of it): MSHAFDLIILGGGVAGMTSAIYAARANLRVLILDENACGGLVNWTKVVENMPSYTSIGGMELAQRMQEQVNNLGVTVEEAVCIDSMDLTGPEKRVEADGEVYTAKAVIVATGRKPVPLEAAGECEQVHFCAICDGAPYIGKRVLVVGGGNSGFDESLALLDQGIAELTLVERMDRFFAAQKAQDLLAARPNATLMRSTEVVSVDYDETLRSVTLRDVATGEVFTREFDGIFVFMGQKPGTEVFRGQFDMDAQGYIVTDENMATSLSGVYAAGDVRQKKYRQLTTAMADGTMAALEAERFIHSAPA
T2 sequence (Q72B02 entry or part of it): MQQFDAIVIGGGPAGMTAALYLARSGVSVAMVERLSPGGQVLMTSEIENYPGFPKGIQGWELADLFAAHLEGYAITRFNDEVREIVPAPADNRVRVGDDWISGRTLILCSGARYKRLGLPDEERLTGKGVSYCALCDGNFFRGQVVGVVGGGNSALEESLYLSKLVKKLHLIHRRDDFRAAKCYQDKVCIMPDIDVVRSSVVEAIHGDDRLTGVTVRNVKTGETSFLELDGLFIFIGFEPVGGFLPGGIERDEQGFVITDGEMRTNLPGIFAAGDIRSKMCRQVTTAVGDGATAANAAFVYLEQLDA

For the compound `NC(=O)C1=CN([C@@H]2O[C@H](COP(=O)(O)OP(=O)(O)OC[C@H]3O[C@@H](n4cnc5c(N)ncnc54)[C@H](O)[C@@H]3O)[C@@H](O)[C@H]2O)C=CC1` [NADH], in test [1], the “reduction of bound flavin, absorbance spectra, anaerobic” value was “DvTR1 and DvTR3 were efficiently reduced by their specific reductants”.
Take `NC(=O)C1=CN([C@@H]2O[C@H](COP(=O)(O)OP(=O)(O)OC[C@H]3O[C@@H](n4cnc5c(N)ncnc54)[C@H](OP(=O)(O)O)[C@@H]3O)[C@@H](O)[C@H]2O)C=CC1` [NADPH]: in test [2], the “reduction of bound flavin, absorbance spectra, anaerobic” value was “DvTR1 and DvTR3 were efficiently reduced by their specific reductants”.
As for “DvTRi, isolated thioredoxin reductase from Desulfovibrio vulgaris Hildenborough (enzyme)”, in test [3], the stoichiometry N was 2.
The compound DvTrx1C30S (natural protein) had a stoichiometry N in test [4] of 2.
DvTrx1C33S (natural protein) registered a stoichiometry N in test [5] of 2.
